Experimental data taken from publication PMC4142144.

Target: 2CARD^RIG-I(E52A)-CARD^MAVS(KKK) fusion protein, 16 aa linker (human) (UniProt O95786)
Assay: SEC-MALS

stoichiometry N: 4
Substance: 2CARD^RIG-I(E52A)-CARD^MAVS(KKK) fusion protein, 16 aa linker (from UniProt O95786 1-188; Q7Z434 1-97)
